Source: the supplement of paper PMC9170038

Test system: MS2 coat protein
Assay: apparent KD of MS2 coat protein; higher = weaker reporter binding
Conditions: Eterna round: R107
How it was run: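 For every design, apparent KD is the median of normalised binding-curve fits from its clusters. The RNA switches were transcribed on-chip from Illumina sequencing clusters and titrated with SNAP-549-labelled MS2 coat protein (twofold steps, 0.7 or 1.5 nM to 3 µM; 0.8–1.5 h to 10–20 min per step). Titrations used 100 mM Tris-HCl pH 7.5, 80 mM KCl, 4 mM MgCl2, without or with constant ligand.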

[1] = input ligand: theophylline 20 uM
[2] = input ligand: theophylline 2 mM
[3] = input ligand: tryptophan 2.4 mM

Sequence	apparent KD of MS2 coat protein (input ligand: arginine 13.2 mM) [nM]	apparent KD of MS2 coat protein [1] [nM]	apparent KD of MS2 coat protein [2] [nM]	apparent KD of MS2 coat protein [3] [nM]	apparent KD of MS2 coat protein (input ligand: none) [nM]
GCCCUGCGCCCGGGACCGGCAAGAUCCAUGCGAGGACCGGUACGGCCGCCACUCGCAGACGUACAUGAGGAUCACCCAUGUCCUC [theeternabot_exclusion_MS2_Trp_A_24]	140	838	867		
AAUUUGUCGGGUGAUACCAGCCUCGGCGCGUCUCGCGCUGAACAUGAGGAUCACCCAUGUGGCCCUUGGCAGCACAUGACAAAUC [Raracere]	367	557		677	
UUAUGCAGGUCGGCCGCCACUACACACAUGAGGAUCACCCAUGUAGUUACUGGGUGAAGUGGCAGUAGGACCGGGACCUGCAUAC [Brourdmod06]	55.4	396	877		
UUACACAUCUCGGCCGCCACUGGCUUCAAAAUAAUGUGUACAUGAGGAUCACCCAUGUCCGAGCUCAGGACCGGGAGCAAAGAAG [SS Tryp B #14]	21.1	29.2	28.4		
AGAUUCGACACGGCCGCCACUUGUGGUGGAUUAUCCUAUGUAAGACAUGAGGAUCACCCAUGUACAAGGACCGGGUGUUGAGUCU [XTryp B #22]	108	336	385		
GUUGGUUUGGGAAGGAGCGGGUAUGUUGUCUACUUGAUCCUAACAUGAGGAUCACCCAUGUCCCAGGUAGGUCGCCCAGGCUUUG [12.aD]	35.7	230	103	98.4	139
UGUAUGGACUGAAGGAGCGGAUGAUAAUCUGAGGAUCACCCAGGUAAUAAGGCGAAAGCCAUCCAGGUAGGUCGCAGUCCAUACU	40.9	96.9	111	103	82.9
GACAUGAGGAUCACCCAUGUUUGCUAUGAAGGAGCGUCGGAAAUGACAGGUAGGUCGCAUAGUAGACCUUGUAUUUCGUGUGUUU [#01 Exclusion - Arginine A]	10.8	14.5	11.2	12	10.8
UACUUGCGGUCGGCCGCCACUACGAGGCAGACCUUCACAUGAGGAUCACCCAUGUAGUCGGCUAGUAGGACCGGGAUGGCAUAAA [Solasoce]	28.6	41.9	41.8	16.3	29.2
ACGGAUCGGAAACGAUCCGCGGCGAGGGUGCGAGGACCGGUACGGCCGCCACUCGGGUAACAUGAGGAUCACCCAUGUCCGAAGA [ETA NuPACK+Vienna+Vienna2 #10 Same Structure]	35.8	60.3	106	209	55
GAGCUGAUGUAGAGAUUAUAUAAAAGAGAUACCAGUACAGAAAUGUACCCUUGGCAGCUCAACUUUACAUGAGGAUCACCCAUGU [Ex Theophylline A 19]	15.4	15.8		13.9	
UACAUGAGGAUCACCCAUGUCUGAACUGAAGGAGCGCUAAACAAGGCAGGUAGGUCGCGGAAUUUUGUGUGCAUAUGCAUAUGGG [9.K]	23.6	46.7	36.5	31.1	30.6
ACACAUGAGGAUCACCCAUGUGCCCAUGAAGGAGCGUGGGAAACCACAGGUAGGUCGCAUGACAUGAGGAUCACCCAUGUUUAUU [Astarte]	29	44.9	39.7	41.9	41.9
ACAUGAGGAUCACCCAUGUAUUGAGCCGAAGGAGCGGCAGGUAUGCCAGGUAGGUCGCGGUUAGAGUAGAUUGAUGUUCUUUUGU [Exclusion - Arginine A / B]	12.3	14.8	16.3	12.4	12.7
GAAGGAGUUAUGGGUACUCCUUCACUGGAAGGAGCGAGCGAAAGCUCAGGUAGGUCGCCAGAAACAUGAGGAUCACCCAUGUAAU [(A)''-(M)'-(A)'-(Arg1)-(Arg2)-(M1)-(M2)_Design6]	30.3	59.5	65.3	41.3	45.7
ACAUGAGGAUCACCCAUGUGCCGUCUUGAUACCAGACCCGAAGUAGUCCCUUGGCAGCAACUACGUGACGGUCGCGCAUGUGUAG [kaomullin]	16.3	30.3		17.7	
CCGUCACAUGAGGAUCACCCAUGUGCGGAAGGAGCGGACGAUAGUCCAGGUAGGUCGCCGUAUAGCCAAUGACCAGCAGUGUCGG [XARG-A 22]	12.4	16.6	14.8	15	13.9
CCUCAAUCGUCGGCCGCCACUGAAUCAUGCGGAUACAUGAGGAUCACCCAUGUGGGUGUGGUACGCAGGACCGGGACAAGACCCG [#14 Same State - Tryptophan B]	154	337	860	152	203
AACAUGAGGAUCACCCAUGUCCUCGUGUUCCGAGGACCGGUACGGCCGCCACUCGGUCCUCGCGAGGAUGGUCAAAGACUAUCCA [Omei Trp A SS B v3]	724	378	953		

Sequence	apparent KD of MS2 coat protein (input ligand: arginine 13.2 mM) [nM]	apparent KD of MS2 coat protein [1] [nM]	apparent KD of MS2 coat protein [2] [nM]	apparent KD of MS2 coat protein [3] [nM]	apparent KD of MS2 coat protein (input ligand: none) [nM]
AGUCUUAAUGGAAGGAGCGCAGUCAUAACAUGAGGAUCACCCAUGUCGAGGUGAGGGUCAUUGCAGGUAGGUCGCCAUACUAGGA [Same State - Arginine B (Freestyle 2)]	84.6	264	240	131	181
CGCACAUGAGGAUCACCCAUGUGAGGGCGGCGAGGACCGGUACGGCCGCCACUCGCAAAACAUGAGGAUCACCCAUGUGCCGCCG [SSTA DOUBLE!!! :-D #2]	30.1	92.3	103	29.2	32.9
GGACUAACCAGAAGGAGCGACACGCAGAAACUGCAAUUUCCUCCGCACGAGGAUCACCCGUGUCAGGUAGGUCGCUGGUUAGUCG	20.6	35.1	25.8	21.1	22.1
AAUCAUGGAAACAUGACAUGAGGAUUACUCCGAGGACCGGUACGGCCGCCACUCGCGAGGAGGCGGACAUGAGGAUCACCCAUGU [#03 Tryptophan A Same State]	55.8	208	189		
CUAGGAAACUAGUAAGGGUGGUAUAGAGAUACCAGUACAGAAAUGUACCCUUGGCAGCUCACUGCAACAUGAGGAUCACCCAUGU [Ex Theophylline A 11]	29.9	41.6		26.1	
GAUGAUAUUGCAGAUACCAGACACAUGAGGAUCACCCAUGUCGCUGGGUUACUGGAUCGUGUCCCUUGGCAGCUGCGAUAUCAUC [Austria]	69.7	379		294	
UCGCUCGCCGGAAGGCGAGCGAGUUGCGAUACCAGCCCGGAAACGGGCCCUUGGCAGCGCACAUGAGGAUCACCCAUGUCAUGUU [#1 Exclusion - Theophylline A Attempt #6 (HarryS)]	24.3	27.5		18.3	
AGCACUGUGACGGCCGCCACUACAUAUAGGGUGGUCAGGUUCAUAAUACAUGAGGAUCACCCAUGUAGGACCGGGUCUCAGUGCA [Omei Trp Exc B A v5]	12.5	14.6	14.6		
GUGUGCGGCACGGCCGCCACUGCGGUGGUGUGACAUGAGGAUCACCCAUGUUGUCAUGCGGCCCUUAGGACCGGGUGGCGUGCAC [#1 Exclusion - Tryptophan B Attempt #17 (HarryS)]	27.4	61.2	50.4	46.5	37.3
UGAGGGACCAGAAGGAGCGACAUGAGGAUCACCCAUGUCUCCCGUUAUGGGAGUUCUUUAGGUCAGGUAGGUCGCUGGUCCCUCA [#1 Exclusion - Arginine B Attempt #7 (Inspired by Omei)]	25.6	256			77.9
GAGACAUGAGGAUCACCCAUGUUAGAUGAUACCAGUUAGAGAAGGAGCCCUUGGCAGCGUAAAUCUAGAGCCUAUGACGACAUGU [ss-theoA-1]	16.2	15.8		13.2	
GGCCAGGCAGCGGCCGCCACUUAGUGGGCCGAAUGUCCUUUGCUGAACAUGAGGAUCACCCAUGUAAGGACCGGGCUGUUCCGCA [theeternabot_exclusion_MS2_Trp_B_30]	27.4	42.3	41.5		
GCUAGGUCAUCGGCCGCCACUAACGACGGCUCCAACAUGAGGAUCACCCAUGUGCCACAUGCGCAUAGGACCGGGAUGACCUAGC [SSTB NP+V+V2 #4]	25.6	55	45	14.6	36.9
AAGGUGAUCCCAGAUACCAGCUUAACAUGAGGAUCACCCAUGUAUGGGACGAAAGUCCCGGGCCCUUGGCAGCUGGGUUGCCAAG [SSTheo B #16]	43.6	427	64.9	170	224
GAUCCUCGUACGGAUACCAGCGACUAACAUGAGGAUCACCCAUGUGAUAAAGAAAAUAUUUGCCCUUGGCAGCCGAAUAGAUAGU [#21 Same State - Theophylline B]	36.5	91.5		74.2	
AUUCAUGGAAACAUGAGAUAUCCUACCGGUCGAGGACCGGUACGGCCGCCACUCGGUUGGUGGCACAUGAGGAUCACCCAUGUUA [SS Tryp A #12]	77.6	310	378		
AGCCGGAUUACGGCCGCCACUGUAGACGUGACGAAAGUCGCGUCAACAUGAGGAUCACCCAUGUACAGGACCGGGUGGUCCGGCA [Omei Trp B SS A v3]	7.09	11.2	8.87	8.97	9.61
CCUUUGUAGCGAAGGAGCGCGUGACUUAGCUCAUGUAAACAUGAGGAUCACCCAUGUGACACGCAGGUAGGUCGCGCUAUGAAGG [Arg B Ex t3]	22.2	28.7	23.5	21.9	22.3
UGCAUGAGGAUCGCCCGUGUCGAGCCGGUGCGAGGACCGGUACGGCCGCCACUCGAGACAUGAGGAUCACCCAUGUUGUGCGUGA [Exclusion Tryptophan A GF24]	27.9	79.5	56.4		
